According to US20220163515, “PUMILIO DOMAIN-BASED MODULAR PROTEIN ARCHITECTURE FOR RNA BINDING” (Massachusetts Institute of Technology, published 2022):

Columns and labels:
[1] = target: T1, PumHD wild-type (Pumilio homology domain) (Homo sapiens, UniProt Q14671 Q14671:828-1176); assay: FP; no detectable binding, fit did not converge; conditions: tags: 6xHis (pBadHisB vector); label: 5'-FAM
Protocol: (§1) Methods Enzymol 469:287-302; Heyduk T, Ma Y, Tang H, Ebright R H (1996) Fluorescence anisotropy: rapid, quantitative assay for protein-DNA and protein-protein interaction. Methods Enzymol 274:492-503; Dinman J (2013) Biophysical approaches to translational control of gene expression. 317].
(§2) The cognate and non-cognate RNA targets for the purified Pum variant proteins were synthesized with 5′-labeled FAM, 6-carboxyfluorescein (IDT). […] 50 nM cognate RNA was mixed with increasing concentration of the protein (measured by NanoDrop, Thermo Scientific) in the binding buffer (25 mM Tris-HCl pH 7.5, 0.5 mM EDTA, 50 mM KCl, 0.1 mg/mL BSA). The 100 μL samples were assayed, in duplicates, for fluorescence anisotropy using a Cary Eclipse fluorimeter (Varian) with Manual Polarizer Accessory (Varian). […] Fluorescence anisotropy was calculated as a unitless ratio defined as R═(I₌−I_{⊥})/(I₌+2I_{⊥}), where I is the emission intensity parallel (I₌) or perpendicular (I_{⊥}) to the direction of polarization of the excitation source. […] The Kd of each protein to its cognate and non-cognate RNA was subsequently measured, using the protein concentration corrected to the active protein fraction, with constant concentration of RNA. The Kd was calculated from a non-linear fit in IgorPro 6.22 of the anisotropy vs. protein concentration plot to the equation [Qu X, Chaires J B (2000) Analysis of drug-DNA binding data.

[2] = target: T1, PumHD wild-type (Pumilio homology …); assay: FP; 25 mM Tris-HCl pH 7.5, 0.5 mM EDTA, 50 mM KCl, 0.1 mg/mL BSA; active-fraction corrected; conditions: tags: 6xHis (pBadHisB vector); label: 5'-FAM
Protocol: as §1, §2

T1 sequence (Q14671 828-1176, one chain of several): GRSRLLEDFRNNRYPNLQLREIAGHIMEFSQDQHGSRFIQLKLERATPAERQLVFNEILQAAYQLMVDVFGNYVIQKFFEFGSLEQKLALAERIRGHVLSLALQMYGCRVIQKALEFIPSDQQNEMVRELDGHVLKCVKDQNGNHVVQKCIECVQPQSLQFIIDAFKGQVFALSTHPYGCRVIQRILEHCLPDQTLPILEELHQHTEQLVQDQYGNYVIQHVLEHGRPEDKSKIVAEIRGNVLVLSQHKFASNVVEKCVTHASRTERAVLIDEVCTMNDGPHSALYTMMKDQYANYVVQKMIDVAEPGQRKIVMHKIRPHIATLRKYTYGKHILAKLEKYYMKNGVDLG

Binder | binding result [1] | Kd [2]
ACAUAUAU (ssRNA) [wild-type noncognate] | no binding | –
CCAGAAUUGUAUAUAUUCG (ssRNA) [wild-type NRE cognate] | – | 88 pM
